Measurements published in the supplement of paper PMC12764529.
± gives the half width of the 95% confidence interval.

Assays:
[1] = folding stability dG unfold from chymotrypsin proteolysis; higher = more stable
Summary of the method: (§1)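 Unfolding free energy was derived, per protease or combined, against a sequence-predicted unfolded-state K50 and a shared folded-state K50, starting from K50 inferred by Bayesian fitting of sequencing counts. Digestion with trypsin and chymotrypsin was carried out on designed mini-proteins under 80 residues without cysteine in a PA-tagged cDNA display construct. Only designs with AlphaFold2 dimer inter-PAE above 15 were kept.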

[2] = folding stability dG unfold from trypsin proteolysis; higher = more stable
Summary of the method: as §1

[3] = folding stability dG unfold (combined trypsin and chymotrypsin); higher = more stable
Summary of the method: as §1

SAGGSAGGDPGDDYKIGVFPFTFLFGGYRISIPIFRITKDGKPQHIFMAIEIEPLPPPKDPGDNSAGGSAGG [r6_684_TrROS]
folding stability dG unfold [1]: 4 ± 0.087 kcal/mol
folding stability dG unfold [2]: 3.21 ± 0.093 kcal/mol
folding stability dG unfold [3]: 3.71 ± 0.15 kcal/mol

SAGGSAGGSAMELVVKEVEYRGPLSLSIEEIAEEIEKKEGIKVIELEEYPDEKVKITIEKVSAGGSAGGSAG [r3_66_JUSTAS]
folding stability dG unfold [1]: 0.764 ± 0.12 kcal/mol
folding stability dG unfold [2]: -0.463 ± 0.16 kcal/mol
folding stability dG unfold [3]: 0.485 ± 0.19 kcal/mol

SEAEEAARKLAEELGLEVEVVEVDEETGTVTVRVRFEDEPTVTITITFDEETGELTVTIEVRPPPPPPPESA [r9_1119_TrROS_Hall]
folding stability dG unfold [1]: 3.51 ± 0.54 kcal/mol
folding stability dG unfold [2]: 3.49 ± 0.23 kcal/mol
folding stability dG unfold [3]: 3.72 ± 0.43 kcal/mol

SAGGSAGGSAEYRVVVVPPVPTVLIFVKPDRVYVVDLDPATGRATIRPVNVPPNVLPESLLTSAGGSAGGSA [r18_59_TrMRF]
folding stability dG unfold [1]: 1.67 ± 0.06 kcal/mol
folding stability dG unfold [2]: 1.27 ± 0.02 kcal/mol
folding stability dG unfold [3]: 1.52 ± 0.056 kcal/mol

SMKPPVKVRIRIYNPETGEEIATIEIEFLPDGTVKVTIEIDGKKYEIEMSLDELLEALKKLPFKIVEIEPSA [r9_470_TrROS_Hall]
folding stability dG unfold [1]: 3.35 ± 0.064 kcal/mol
folding stability dG unfold [2]: 3.72 ± 0.12 kcal/mol
folding stability dG unfold [3]: 3.57 ± 0.1 kcal/mol

SAGGSAGGSAGRRRVFFTPDGTLIVVDELPDFVRVTRYRITPGFPRIEPVDTRVLPPGALSAGGSAGGSAGG [r11_844_TrMRF]
folding stability dG unfold [1]: 2.94 ± 0.086 kcal/mol
folding stability dG unfold [2]: 1.11 ± 0.18 kcal/mol
folding stability dG unfold [3]: 2.25 ± 0.16 kcal/mol

SAGGSAGGSAMEIEIEIEIPVPVPGGVPSPENPEVAEERAEEIKEKYAKEGLKVKVKITVVSAGGSAGGSAG [r3_258_JUSTAS]
folding stability dG unfold [1]: 1.13 ± 0.061 kcal/mol
folding stability dG unfold [2]: 1.22 ± 0.21 kcal/mol
folding stability dG unfold [3]: 1.07 ± 0.3 kcal/mol

PETVTLTVEIEIEVRGPDGKPLTPEQVEELAKALAEELAAELGLEVEVTVTVEPVGPDGKYRITVTVTIRPS [r1_231_TrROS_Hall]
folding stability dG unfold [1]: 5.69 ± 0.86 kcal/mol
folding stability dG unfold [2]: 4.45 ± 0.34 kcal/mol
folding stability dG unfold [3]: > 6 kcal/mol

SAGGSADADDVTIVINMFRNPNNKGWFFRIEIQDPDKEREIFMPFDDIPKFQEAGLKIEITEWYPFSAGGSA [r15_783_TrROS]
folding stability dG unfold [1]: 3.29 ± 0.038 kcal/mol
folding stability dG unfold [2]: 2.41 ± 0.068 kcal/mol
folding stability dG unfold [3]: 3.03 ± 0.086 kcal/mol

SAGGSAGGSAGGKKPITLTVLVTDPDGYLLQRTTTLTLDEDTNELTATTTVTRIPLEDLSAGGSAGGSAGGS [r10_1225_TrROS_Hall]
folding stability dG unfold [1]: 1.97 ± 0.088 kcal/mol
folding stability dG unfold [2]: 0.684 ± 0.11 kcal/mol
folding stability dG unfold [3]: 1.6 ± 0.13 kcal/mol

DIDIETHPNGTILIKVPRNLLDEIKDILKENGYNVKITGIDPDWGYIRFPLKPVPPPPPKPSPEDAEEQGDS [r1_78_TrROS]
folding stability dG unfold [1]: 2.14 ± 0.041 kcal/mol
folding stability dG unfold [2]: 1.76 ± 0.082 kcal/mol
folding stability dG unfold [3]: 1.89 ± 0.14 kcal/mol

SMKRVLILVPDPSVDKEELIEELKKKGFEDIEVVDSEEELKKLPENIDVVVIVRDGEVEVREVPPVEALKSA [r9_750_JUSTAS]
folding stability dG unfold [1]: 0.585 ± 0.1 kcal/mol
folding stability dG unfold [2]: 0.698 ± 0.037 kcal/mol
folding stability dG unfold [3]: 0.706 ± 0.11 kcal/mol

SMEIDPGPGVIRLRFEAPLVDPEHPRLLTLRLEPVIEVSPDGTLRVREVRLVGFSPDGELLFERPFTLDLSA [r9_383_TrMRF]
folding stability dG unfold [1]: 2.28 ± 0.06 kcal/mol
folding stability dG unfold [2]: 1.865 ± 0.017 kcal/mol
folding stability dG unfold [3]: 2.16 ± 0.066 kcal/mol

SAGGKTITIKVKLENGEEKTIEVKVDEVKIEKKNGKLVITFKDGKKITIPLDKIEDMSEDEIKKLLEKSAGG [r13_925_TrROS_Hall]
folding stability dG unfold [1]: 3.03 ± 0.18 kcal/mol
folding stability dG unfold [2]: 2.72 ± 0.15 kcal/mol
folding stability dG unfold [3]: 2.97 ± 0.2 kcal/mol

SAGGSAGGSAGLEALKKALEALPPGEERELEIEVEVDGKLYRFRIRVEKTEDGEYKATIELESAGGSAGGSA [r18_493_TrROS_Hall]
folding stability dG unfold [1]: 4.88 ± 0.084 kcal/mol
folding stability dG unfold [2]: 4.56 ± 0.34 kcal/mol
folding stability dG unfold [3]: 4.76 ± 0.16 kcal/mol

SAGGKEYYLVKIEIEVTPENGKKETIEIELIVDGNPEEALKKAKEIAEYLEKKGFKVEIKKIEVYPASAGGS [r16_525_TrMRF]
folding stability dG unfold [1]: 4.55 ± 0.073 kcal/mol
folding stability dG unfold [2]: 3.9 ± 0.15 kcal/mol
folding stability dG unfold [3]: 4.54 ± 0.15 kcal/mol

SAGMVVTERTEPATGRPYTVTTEEDGSVTGSYPATGDTRSTTLNDRTTFSLPTTSPEVAAAQVEAALAASAG [r14_561_JUSTAS]
folding stability dG unfold [1]: -0.313 ± 0.15 kcal/mol
folding stability dG unfold [2]: -0.138 ± 0.075 kcal/mol
folding stability dG unfold [3]: -0.137 ± 0.072 kcal/mol

SAGGSMDLRVVVVGEDGKVLELPAGEEVSLPDVVAFFSELGDFEVEAHPESGTLTIRVPKGVLEEASAGGSA [r2_164_TrMRF]
folding stability dG unfold [1]: 0.804 ± 0.042 kcal/mol
folding stability dG unfold [2]: 0.543 ± 0.02 kcal/mol
folding stability dG unfold [3]: 0.728 ± 0.046 kcal/mol

SAGGSAVERLRELLKELGVEVTVERKDGKVYIRVEASPEKREKLAEALRELFGKDIEIEVLEEGEEPSAGGS [r16_514_TrROS_Hall]
folding stability dG unfold [1]: 3.17 ± 0.073 kcal/mol
folding stability dG unfold [2]: 3.86 ± 0.18 kcal/mol
folding stability dG unfold [3]: 3.49 ± 0.08 kcal/mol

SAGMVEVYEEDKRLLVRVTLESPDPSTITEETVRELLERLGLPVEELEISPTALPNGSYTVTAEVVVLPSAG [r5_922_JUSTAS]
folding stability dG unfold [1]: 1.61 ± 0.025 kcal/mol
folding stability dG unfold [2]: 1.39 ± 0.056 kcal/mol
folding stability dG unfold [3]: 1.59 ± 0.17 kcal/mol

SAGGSAGGSMTFSSEEEAEAFIAQLPPDSEVEVEIKDPNTDKTTKYKIKVPPEQPVYSPKGVLSAGGSAGGS [r12_393_JUSTAS]
folding stability dG unfold [1]: 1.5 ± 0.063 kcal/mol
folding stability dG unfold [2]: 0.308 ± 0.11 kcal/mol
folding stability dG unfold [3]: 1.2 ± 0.14 kcal/mol
